Assay results taken from article PMC4048032.

Target: VopL C-terminal Domain (VCD), residues 247–484 (Vibrio parahaemolyticus) (UniProt Q87GE5)
Test: crystal structure

For “VopL C-terminal Domain (VCD), residues 247–484 (from UniProt Q87GE5 247-484) (domain or fragment)”, the stoichiometry N was 2.
